Kd data for 34 molecules are collected here from patent publication US20210388110A1 (published 2021).

Positions count from the first letter of the chain named.

For the test, the target named is T1, soluble human CD3ε chain (human, UniProt P07766 23-126, limits assumed).
T1 construct: the text says soluble human CD3ε chain; also called human CD3 epsilon chain
The test is described as follows: SPR (Biacore). (In general: Surface plasmon resonance follows binding to a sensor surface in real time, without labels.)

T1 sequence (P07766 23-126 limits assumed): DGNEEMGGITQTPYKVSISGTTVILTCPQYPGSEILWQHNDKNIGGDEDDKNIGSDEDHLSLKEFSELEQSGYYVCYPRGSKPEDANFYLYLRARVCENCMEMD

B1: TR01H016-E22Hh/none-Hi-Kn010G3/L0000-k0 (antibody, human IgG1, kappa, L234A L235A, N297A)
heavy: QVQLVESGGGLVQPGRSLRLSCAASGFTFSNAWMHWVRQAPGKGLEWVAQIKGKSNNYATYYAESVKGRFTISRADSKNSIYLQMNSLKTEDTAVYYCRYVHYSYSYGVDIWGQGTTVTVSSASTKGPSVFPLAPSSKSTSGGTAALGCLVKDYFPEPVTVSWNSGALTSGVHTFPAVLQSSGLYSLSSVVTVPSSSLGTQTYICNVNHKPSNTKVDKKVEPKSCDKTHTCPPCPAPEAAGGPSVFLFPPKPKDTLMISRTPEVTCVVVDVSHEDPEVKFNWYVDGVEVHNAKTKPREEQYASTYRVVSVLTVLHQDWLNGKEYKCKVSNKALPAPIEKTISKAKGQPREPQVYTLPPSRCELTKNQVSLSCAVKGFYPSDIAVEWESNGQPENNYKTTPPVLDSDGSFFLVSKLTVDKSRWQQGNVFSCSVMHEALHNHYTQKSLSLSPDYKDDDDK
chain: EPKSSDKTHTCPPCPAPELLGGPSVFLFPPKPKDTLMISRTPEVTCVVVDVSHEDPEVKFNWYVDGVEVHNAKTKPREEQYNSTYRVVSVLTVLHQDWLNGKEYKCKVSNKALPAPIEKTISKAKGQPREPQVCTLPPSRDELTKNQVSLWCLVKGFYPSDIAVEWESNGQPENNYKTTPPVLDSDGSFFLYSKLTVDKSRWQQGNVFSCSVMHEALHNRYTQKSLSLSP
light: DIVMTQSPLSLPVTPGEPASISCRSSQSLVHSNRNTYLHWYQQKPGQAPRLLIYKVSNRFSGVPDRFSGSGSGTDFTLKISRVEAEDVGVYYCGQGTQVPYTFGQGTKLEIKRTVAAPSVFIFPPSDEQLKSGTASVVCLLNNFYPREAKVQWKVDNALQSGNSQESVTEQDSKDSTYSLSSTLTLSKADYEKHKVYACEVTHQGLSSPVTKSFNRGEC
notes: single-arm
As a reminder, the Kd is the concentration at which binding is half-saturated. Read a low Kd as tighter binding. In turn, B1 yielded a Kd of 36.9 nM.

B2: TR01H037-E22Hh/none-Hi-Kn010G3/L0000-k0 (antibody, human IgG1, kappa, L234A L235A, N297A)
heavy: B1 heavy with H35P, Y105A
chain: B1 chain
light: B1 light
notes: single-arm
Molecule B2 came in with a Kd of 6.93 nM.

B3: TR01H032-E22Hh/none-Hi-Kn010G3/L0000-k0 (antibody, human IgG1, kappa, L234A L235A, N297A)
heavy: B1 heavy with G53S, N56Q, Y105A, I111A
chain: B1 chain
light: B1 light
notes: single-arm
As to B3, the Kd came out at 57.3 nM.

B4: TR01H017-E22Hh/none-Hi-Kn010G3/L0000-k0 (antibody, human IgG1, kappa, L234A L235A, N297A)
heavy: B1 heavy with R16G, G53A, S104G, Y105A, S106Y
chain: B1 chain
light: B1 light
notes: single-arm
In turn, B4 registered a Kd of 35 nM.

B5: TR01H029-E22Hh/none-Hi-Kn010G3/L0000-k0 (antibody, human IgG1, kappa, L234A L235A, N297A)
heavy: B1 heavy with A23S, Y105A
chain: B1 chain
light: B1 light
notes: single-arm
Consider B5, for which the Kd came to 67 nM.

B6: TR01H040-E22Hh/none-Hi-Kn010G3/L0011-k0 (antibody, human IgG1, kappa, L234A L235A, N297A)
heavy: B1 heavy with G53D, N56Q, Y105A, I111A
chain: B1 chain
light: B1 light with S28P
notes: single-arm
The molecule B6 yielded a Kd of 34.8 nM. Against the preceding molecule, the Kd is about 1.9-fold lower.

B7: TR01H040-E22Hh/none-Hi-Kn010G3/L0201-k0 (antibody, human IgG1, kappa, L234A L235A, N297A)
heavy: B1 heavy with G53D, N56Q, Y105A, I111A
chain: B1 chain
light: B1 light with S28P, L29P
notes: single-arm
B7 returned an equilibrium dissociation constant (Kd) of 28.1 nM.

B8: TR01H040-E22Hh/none-Hi-Kn010G3/L0211-k0 (antibody, human IgG1, kappa, L234A L235A, N297A)
heavy: B1 heavy with G53D, N56Q, Y105A, I111A
chain: B1 chain
light: B1 light with S28P, L29P, G94Y
notes: single-arm
The molecule B8 had a Kd of 3.22 nM. This Kd lies about 8.7-fold lower than the previous one.

B9: TR01H040-E22Hh/none-Hi-Kn010G3/L0207-k0 (antibody, human IgG1, kappa, L234A L235A, N297A)
heavy: B1 heavy with G53D, N56Q, Y105A, I111A
chain: B1 chain
light: B1 light with L29P, S61R, G94Y
notes: single-arm
B9 registered a Kd of 2.6 nM.

B10: TR01H040-E22Hh/none-Hi-Kn010G3/L0203-k0 (antibody, human IgG1, kappa, L234A L235A, N297A)
heavy: B1 heavy with G53D, N56Q, Y105A, I111A
chain: B1 chain
light: B1 light with L29P, L38I
notes: single-arm
Take B10: the affinity, expressed as Kd, was 32.4 nM.

B11: TR01H040-E22Hh/none-Hi-Kn010G3/L0213-k0 (antibody, human IgG1, kappa, L234A L235A, N297A)
heavy: B1 heavy with G53D, N56Q, Y105A, I111A
chain: B1 chain
light: B1 light with L29P, L38I, S61R
notes: single-arm
In turn, B11 came in with a Kd of 20.1 nM.

B12: TR01H040-E22Hh/none-Hi-Kn010G3/L0208-k0 (antibody, human IgG1, kappa, L234A L235A, N297A)
heavy: B1 heavy with G53D, N56Q, Y105A, I111A
chain: B1 chain
light: B1 light with L29P, S61W, G94Y
notes: single-arm
As to B12, the Kd amounted to 4.16 nM.

B13: TR01H027-E22Hh/none-Hi-Kn010G3/L0000-k0 (antibody, human IgG1, kappa, L234A L235A, N297A)
heavy: B1 heavy with R16G, G53S, N56Q, Y105A, I111A
chain: B1 chain
light: B1 light
notes: single-arm
In turn, B13 gave a Kd of 69.5 nM.

B14: TR01H030-E22Hh/none-Hi-Kn010G3/L0000-k0 (antibody, human IgG1, kappa, L234A L235A, N297A)
heavy: B1 heavy with L11V, Y105A
chain: B1 chain
light: B1 light
notes: single-arm
B14 yielded an equilibrium dissociation constant (Kd) of 65.4 nM.

B15: TR01H020-E22Hh/none-Hi-Kn010G3/L0000-k0 (antibody, human IgG1, kappa, L234A L235A, N297A)
heavy: B1 heavy with E64P, Y105A
chain: B1 chain
light: B1 light
notes: single-arm
The molecule B15 registered a Kd of 64.8 nM.

B16: TR01H040-E22Hh/none-Hi-Kn010G3/L0202-k0 (antibody, human IgG1, kappa, L234A L235A, N297A)
heavy: B1 heavy with G53D, N56Q, Y105A, I111A
chain: B1 chain
light: B1 light with L29P, N35W
notes: single-arm
On to B16, for which the Kd was 61.9 nM.

B17: TR01H028-E22Hh/none-Hi-Kn010G3/L0000-k0 (antibody, human IgG1, kappa, L234A L235A, N297A)
heavy: B1 heavy with L11V, R16G, G53S, N56Q, Y105A
chain: B1 chain
light: B1 light
notes: single-arm
As to B17, the Kd was determined as 48 nM.

B18: TR01H039-E22Hh/none-Hi-Kn010G3/L0000-k0 (antibody, human IgG1, kappa, L234A L235A, N297A)
heavy: B1 heavy with G53D, N56Q, Y105A
chain: B1 chain
light: B1 light
notes: single-arm
The molecule B18 had a Kd of 26.1 nM.

B19: TR01H040-E22Hh/none-Hi-Kn010G3/L0200-k0 (antibody, human IgG1, kappa, L234A L235A, N297A)
heavy: B1 heavy with G53D, N56Q, Y105A, I111A
chain: B1 chain
light: B1 light with S25P, L29P
notes: single-arm
Consider B19, for which the Kd was 28.7 nM. The Kd values of the last two molecules are within 1.5-fold of each other.

B20: TR01H025-E22Hh/none-Hi-Kn010G3/L0000-k0 (antibody, human IgG1, kappa, L234A L235A, N297A)
heavy: B1 heavy with G53S, N56Q, Y105A
chain: B1 chain
light: B1 light
notes: single-arm
Take B20: the Kd is 38.6 nM.

B21: TR01H036-E22Hh/none-Hi-Kn010G3/L0000-k0 (antibody, human IgG1, kappa, L234A L235A, N297A)
heavy: B1 heavy with Y105A, I111Y
chain: B1 chain
light: B1 light
notes: single-arm
Regarding B21, the Kd is 65 nM.

B22: TR01H018-E22Hh/none-Hi-Kn010G3/L0000-k0 (antibody, human IgG1, kappa, L234A L235A, N297A)
heavy: B1 heavy with R16G, Y105A
chain: B1 chain
light: B1 light
notes: single-arm
For B22, the affinity, expressed as Kd, was 69.3 nM.

B23: TR01H026-E22Hh/none-Hi-Kn010G3/L0000-k0 (antibody, human IgG1, kappa, L234A L235A, N297A)
heavy: B1 heavy with R16G, G53S, N56Q, Y105A
chain: B1 chain
light: B1 light
notes: single-arm
For B23, the Kd is 51.2 nM.

B24: TR01H040-E22Hh/none-Hi-Kn010G3/L0210-k0 (antibody, human IgG1, kappa, L234A L235A, N297A)
heavy: B1 heavy with G53D, N56Q, Y105A, I111A
chain: B1 chain
light: B1 light with L29P, N35W, G94Y
notes: single-arm
Regarding B24, binding was characterised by a dissociation constant (Kd) of 5.06 nM. Against the preceding molecule, the Kd is about 10-fold lower.

B25: TR01H040-E22Hh/none-Hi-Kn010G3/L0206-k0 (antibody, human IgG1, kappa, L234A L235A, N297A)
heavy: B1 heavy with G53D, N56Q, Y105A, I111A
chain: B1 chain
light: B1 light with L29P, G94Y
notes: single-arm
In turn, B25 registered a Kd of 2.9 nM. Compared with the last molecule, the Kd is about 1.7-fold lower.

B26: TR01H040-E22Hh/none-Hi-Kn010G3/L0212-k0 (antibody, human IgG1, kappa, L234A L235A, N297A)
heavy: B1 heavy with G53D, N56Q, Y105A, I111A
chain: B1 chain
light: B1 light with S25P, L29P, G94Y
notes: single-arm
Molecule B26 came in with a Kd of 2.17 nM. The Kd values of the last two molecules are within 1.5-fold of each other.

B27: TR01H040-E22Hh/none-Hi-Kn010G3/L0209-k0 (antibody, human IgG1, kappa, L234A L235A, N297A)
heavy: B1 heavy with G53D, N56Q, Y105A, I111A
chain: B1 chain
light: B1 light with L29P, L38I, G94Y
notes: single-arm
B27 registered a Kd of 4.25 nM.

B28: TR01H040-E22Hh/none-Hi-Kn010G3/L0215-k0 (antibody, human IgG1, kappa, L234A L235A, N297A)
heavy: B1 heavy with G53D, N56Q, Y105A, I111A
chain: B1 chain
light: B1 light with S28P, L29P, L38I
notes: single-arm
For the molecule B28, binding was put at a Kd of 33.7 nM.

B29: TR01H038-E22Hh/none-Hi-Kn010G3/L0000-k0 (antibody, human IgG1, kappa, L234A L235A, N297A)
heavy: B1 heavy with G53D, Y105A
chain: B1 chain
light: B1 light
notes: single-arm
With B29, binding was put at a Kd of 12.4 nM.

B30: TR01H040-E22Hh/none-Hi-Kn010G3/L0205-k0 (antibody, human IgG1, kappa, L234A L235A, N297A)
heavy: B1 heavy with G53D, N56Q, Y105A, I111A
chain: B1 chain
light: B1 light with L29P, S61W
notes: single-arm
In the case of B30, the Kd stood at 34.2 nM.

B31: TR01H040-E22Hh/none-Hi-Kn010G3/L0214-k0 (antibody, human IgG1, kappa, L234A L235A, N297A)
heavy: B1 heavy with G53D, N56Q, Y105A, I111A
chain: B1 chain
light: B1 light with S28P, L29P, S61R
notes: single-arm
As for B31, the Kd worked out at 20.2 nM.

B32: TR01H019-E22Hh/none-Hi-Kn010G3/L0000-k0 (antibody, human IgG1, kappa, L234A L235A, N297A)
heavy: B1 heavy with N56Q, Y105A
chain: B1 chain
light: B1 light
notes: single-arm
B32 displayed a Kd of 68.5 nM.

B33: TR01H033-E22Hh/none-Hi-Kn010G3/L0000-k0 (antibody, human IgG1, kappa, L234A L235A, N297A)
heavy: B1 heavy with G53S, N56Q, Y105A, I111Y
chain: B1 chain
light: B1 light
notes: single-arm
B33 had a Kd of 48.8 nM.

B34: TR01H040-E22Hh/none-Hi-Kn010G3/L0204-k0 (antibody, human IgG1, kappa, L234A L235A, N297A)
heavy: B1 heavy with G53D, N56Q, Y105A, I111A
chain: B1 chain
light: B1 light with L29P, S61R
notes: single-arm
As to B34, binding was put at a Kd of 22.1 nM.
